According to patent publication US20070231258A1, “Peptide conjugates” (KARYON CTT LTD., priority 2006, published 2007):
*1 amine or outer side, *2 acyl side, *3 side chain or, on linkers, in order; H or OH if unused. Where a SMILES comes first, the peptide text is derived from it. Bridges are numbered along the chain shown (N, C = ends). Primed or numbered codes have the meaning given here. [ ]: non-standard residue; d: D form. The star is where a group is joined. X1 = O=C(O)CN(CCN(CC(=O)O)CC(Cc1ccc(NC(=S)NCCOCCOCCN*)cc1)N(CC(=O)O)CC(=O)O)CC(=O)O; DTPA′ = diethylenetriaminepentaacetic acid chelator; NHCH2CH2SCH2CO = O=C(CSCCN[*:1])[*:2]; NH(CH2CH2O)2CH2CH2NH2 = NCCOCCOCCN*; AEEEA = NCCOCCOCCOCC(=O)O; PEG3 = NCCOCCOCCOCCC(=O)O; AABz = not defined here

Key:
[1] = Plasma stability of the peptide conjugates in human blood plasma/PBS (HPLC)
Description: (§1) The peptide conjugates (10-20 μg) was added to a human blood plasma/PBS mixture (1:1) in a total volume of 500 μl and incubated at 37° C. After incubation 100 μl per time point (0 and 240 min) was transferred to YM-10 (Microcon, cut-off 10000 MW; manufacturer Millipore), centrifuged (10000 RPM) 15 min at 4° C. 50 μl of the spin-through material was analyzed by HPLC.
(§2) HPLC: Waters 626 pump, 600S controller, Waters 996 photo diode array detector. Column: C18, 300 Å, 5 μm, 2.1×250 mm. Eluents for the non-conjugated functional peptides: A 0.1% TFA, B 0.075% TFA/100% ACN. Gradient: 0-100% B in 60 min. Flow: 180 μl/min. Loop: 50 μl.
(§3) Eluents for the functional peptide conjugates: Eluent A: 0.05 M ammonium acetate; B: 50% 0.05 M ammonium acetate/50% ACN. Gradient: 0-100% B in 60 min. Flow: 180 μl/min. Loop: 50 μl. One-minute fractions were collected and analyzed with MALDI-TOF.
(§4) Peptide mass: Bruker Ultraflex MALDI-TOF, N2-laser 337 nm, matrix saturated solution of α-cyano-4-hydroxycinnamic acid, reflector mode.

[2] = Plasma protein binding and plasma stability assay in vitro (ultrafiltration, LC/MS/MS); assay type: in vitro ADME, mouse
Description: The plasma protein binding and plasma stability of the targeting agents MJ143 (lactam-bridged; described in Example 8) and MJ142 (cystine-bridged; described below) comprising functional peptide LRSGRG was compared in mouse plasma in vitro.
The study compounds were spiked to mouse plasma to give 10 μM concentration. The samples of 1.5 ml were incubated at 37° C. and 200 μl aliquots were taken after 0 min, 30 min, 60 min, 2 h and 4 h. Incubations were made in duplicate. The aliquot samples were ultrafiltrated for 30 min (Millipore YM-10 filters, 10 kDa cut-off, 12 000 rpm) and the supernatants were analysed using LC/MS/MS. The sample concentrations were quantified against calibration curves created using standard samples spiked to ultrafiltrated mouse plasma to concentrations 0.1, 0.5, 1, 5 and 10 μM.
A Finnigan Surveyor chromatographic system (Thermo-Finnigan, San Jose, Calif., USA) with autosampler, vacuum degasser and column oven was used in the analysis. The analytical column was a Waters SymmetryShield RP18, 2.1×50 mm, 3.5 μm together with Phenomenex Luna C18 precolumn, 4.0×2.0 mm, 3.0 μm (Phenomenex, Torrance, Calif., USA). The eluents were (A) 0.02% acetic acid in water (pH 3.6) and (B) methanol, with flow rate of 300 μl/min. The elution gradient was from 5% B to 90% B in five minutes, followed by column equilibration. The column oven temperature was 30° C. LC/MS/MS data was acquired with a Finnigan TSQ Discovery MAX triple quadrupole mass spectrometer equipped with an Ion MAX electrospray ionization source. Before LC/MS/MS runs, the instrument was tuned with a 5 μg/ml solution of study compounds to obtain the maximum sensitivity with multiple reaction mode. The collision gas was argon at 1.5 mTorr.

in vitro = settings: human, plasma
Description: as §1, §2, §3, §4

C8161 tumors = experiment: Targeting peptide biodistribution (Eu content of tissues) in C8161 tumor-bearing mice; assay type: in vivo, athymic nude mice; settings: 4 nmol i.v. tail vein, 20 min circulation; for accumulation of europium in tumor compared to normal tissue: kidney high due to excretion; for ratio of tumor Eu-content to muscle Eu-content: perfused
Description: It is shown that the tested conjugates according to the present invention selectively target to primary tumors in vivo but not to normal tissues or organs.
For production of experimental tumors 1×10^6 cells of C8161 line (described in Example 9) were injected subcutaneously into the flank of athymic nude mice strain (Harlan Laboratories). Tumors were harvested when they had reached a weight of about 0.1 g. Tumor-bearing mice were anesthetized by 0.02 ml/g body weight of Avertin [10 g 2,2,2-tribromoethanol (Fluka) in 10 ml 2-methyl-2-butanol (Sigma Aldrich)] intraperitoneally (i.p.).
To determine the biodistribution pattern of the conjugates, 4 nmol of MJ015 or MJ053 was injected into the tail vein of athymic nude mice in a volume of 100 μl in physiological saline solution (Baxter). The conjugate was allowed to circulate for 20 min. Mice were then perfused through the heart with 60 ml of physiological saline. Organs and tissues, including tumors were collected and weighed.
For determination of the Eu content of the tumors and control organs, 0.1-0.2 g of tissue was transferred into lysis buffer (20 mM Tris-HCl, 150 mM NaCl, 1% Nonident P40, pH 7.5) and homogenized. Eu-content was analyzed from tissue lysates prepared into the DELFIA Inducer solution (Perkin Elmer Wallac Ltd., Turku, Finland) and transferred to DELFIA Micro titration strip plates (Perkin Elmer Wallac Ltd, Turku, Finland). Time-resolved fluorescence was measured after incubation with a Wallac 1420 VICTOR3™ V plate reader using a D615 nm filter.

a*LRSGRGE*-Teg-AEM-AABz-DTPA-Gd (LRSGRGE-{AEEEA-NHCH2CH2SCH2CO-AABz-DTPA′}; lactam N-7; not fully specified (N-terminus); reading uncertain; also: DTPA chelate of Gd) [MJ059]
Observed compound peak heights prior to incubation ([1]; 0 h, human blood plasma/PBS 1:1, 37° C.): 100% | Observed compound peak heights after four hours ([1]; 4 h, human blood plasma/PBS 1:1, 37° C.): 100% | degradation during incubation in plasma ([1]; 4 h incubation in human plasma): no degradation

CC(=O)N[C@H]1CSSC[C@@H](C(=O)NCC(=O)N[C@@H](C)C(=O)NCCOCCOCCNC(=S)Nc2ccc(CC(CN(CCN(CC(=O)O)CC(=O)O)CC(=O)O)N(CC(=O)O)CC(=O)O)cc2)NC(=O)CNC(=O)[C@H](CCCNC(=N)N)NC(=O)CNC(=O)[C@H](CO)NC(=O)[C@H](CCCNC(=N)N)NC(=O)[C@H](CC(C)C)NC1=O (stereo partly shown) [MJ142, reference compound] (Ac-CLRSGRGCGA-X1; disulfide 1-8)
fraction unbound at 0 h, 10 μM ([2]; 0 h, mouse plasma, 10 μM, 37° C., ultrafiltrate, read-out: Peptide-DTPA[In] relative remaining peak areas/unbound fraction (%)): 0.48 | fraction unbound at 30 min, 10 μM ([2]; 30 min, mouse plasma, 10 μM, 37° C., ultrafiltrate, read-out: Peptide-DTPA[In] relative remaining peak areas/unbound fraction (%)): 0.44 | fraction unbound at 1 h, 10 μM ([2]; 1 h, mouse plasma, 10 μM, 37° C., ultrafiltrate, read-out: Peptide-DTPA[In] relative remaining peak areas/unbound fraction (%)): 0.35 | fraction unbound at 2 h, 10 μM ([2]; 2 h, mouse plasma, 10 μM, 37° C., ultrafiltrate, read-out: Peptide-DTPA[In] relative remaining peak areas/unbound fraction (%)): 0.19 | fraction unbound at 4 h, 10 μM ([2]; 4 h, mouse plasma, 10 μM, 37° C., ultrafiltrate, read-out: Peptide-DTPA[In] relative remaining peak areas/unbound fraction (%)): 0.06 | fraction unbound at 0 min, 10 μM ([2]; mouse plasma, 0 min incubation, during the 30 min ultrafiltration period, read-out: disappearance due to protein binding (converted)): ~0.48

CC(C)C[C@@H]1NC(=O)[C@@H](NC(=O)CN)CSSC[C@@H](C(=O)NCC(=O)NCCOCCOCCN)NC(=O)CNC(=O)[C@H](CCCNC(=N)N)NC(=O)CNC(=O)[C@H](CO)NC(=O)[C@H](CCCNC(=N)N)NC1=O [KK12, Gly-Cys*-Leu-Arg-SerGly-Arg-Gly-Cys*-Gly-NH(CH2CH2O)2CH2CH2NH2, reference compound] (H-GCLRSGRGCG-{NH(CH2CH2O)2CH2CH2NH2}; disulfide 2-9; N-terminus assumed)
remaining at 4 h (in vitro): 25%

a*LRSGRGE*-Tegc-AEM-AABz-DTPA-In (LRSGRGE-{PEG3-NHCH2CH2SCH2CO-AABz-DTPA′}; lactam N-7; not fully specified (N-terminus); reading uncertain; also: In chelated by DTPA) [MJ143]
Peptide-DTPA[In] relative remaining peak areas/unbound fraction (%) ([2]; 0 h, mouse plasma, 10 μM, 37° C., ultrafiltrate): 71% | Peptide-DTPA[In] relative remaining peak areas/unbound fraction (%) ([2]; 30 min, mouse plasma, 10 μM, 37° C., ultrafiltrate): 71% | Peptide-DTPA[In] relative remaining peak areas/unbound fraction (%) ([2]; 1 h, mouse plasma, 10 μM, 37° C., ultrafiltrate): 70% | Peptide-DTPA[In] relative remaining peak areas/unbound fraction (%) ([2]; 2 h, mouse plasma, 10 μM, 37° C., ultrafiltrate): 66% | Peptide-DTPA[In] relative remaining peak areas/unbound fraction (%) ([2]; 4 h, mouse plasma, 10 μM, 37° C., ultrafiltrate): 61% | plasma protein binding, lactam-bridged vs cystine-bridged version ([2]; mouse plasma in vitro): considerably lower plasma protein binding | plasma stability, lactam-bridged vs cystine-bridged version ([2]; mouse plasma in vitro): greatly more stable

a*IREE*-Tegc-AEM-AABz-DTPA-Eu [MJ053]
accumulation of europium in tumor compared to normal tissue (C8161 tumors): accumulated strongly and selectively in C8161 tumors | ratio of tumor Eu-content to muscle Eu-content (C8161 tumors): 3.9

a*LRSGRGE*-Teg-AEM-AABz-DTPA-Eu (LRSGRGE-{AEEEA-NHCH2CH2SCH2CO-AABz-DTPA′}; lactam N-7; not fully specified (N-terminus); reading uncertain; also: DTPA chelate of Eu) [MJ015]
accumulation of europium in tumor compared to normal tissue (C8161 tumors): accumulated strongly and selectively in C8161 tumors | ratio of tumor Eu-content to muscle Eu-content (C8161 tumors): 7.1

CC(C)C[C@@H]1NC(=O)[C@@H](C)NC(=O)CC[C@@H](C(=O)NCCOCCOCCN)NC(=O)CNC(=O)[C@H](CCCNC(=N)N)NC(=O)CNC(=O)[C@H](CO)NC(=O)[C@H](CCCNC(=N)N)NC1=O [KK51, D-Ala*-Leu-Arg-SerGly-Arg-Gly-Glu*-NH(CH2CH2O)2CH2CH2NH2] ([dA]LRSGRGE-{NH(CH2CH2O)2CH2CH2NH2}; lactam N-8)
remaining at 4 h (in vitro): 92%
